Measurements taken from paper PMC6002512, “The Defense-Related Isoleucic Acid Differentially Accumulates in Arabidopsis Among Branched-Chain Amino Acid-Related 2-Hydroxy Carboxylic Acids” (Frontiers in Plant Science, 2018).

How the values were obtained:
Type in all cases: biochemical, Arabidopsis thaliana
purified protein = substrate: O=C(O)c1ccccc1O; test: purified protein; conditions: 2 mM UDP-glucose, 0.1 M Tris-HCl pH 7.5, 30°C
[1] = substrate: CC(C)CC(O)C(=O)O; test: HPLC with radiodetection of glucosylated product, non-linear regression; conditions: 2 mM 14C-UDP-glucose, 0.1 M Tris-HCl pH 7.5, 30°C
Description: (§1) HPLC with radiodetection of glucosylated product, non-linear regression on UGT76B1

[2] = substrate: CC[C@H](C)[C@H](O)C(=O)O; test: as above; conditions: 2 mM 14C-UDP-glucose, 0.1 M Tris-HCl pH 7.5, 30°C
Description: as §1

B1: UGT76B1 (Arabidopsis thaliana) (protein)
chain: METRETKPVIFLFPFPLQGHLNPMFQLANIFFNRGFSITVIHTEFNSPNSSNFPHFTFVSIPDSLSEPESYPDVIEILHDLNSKCVAPFGDCLKKLISEEPTAACVIVDALWYFTHDLTEKFNFPRIVLRTVNLSAFVAFSKFHVLREKGYLSLQETKADSPVPELPYLRMKDLPWFQTEDPRSGDKLQIGVMKSLKSSSGIIFNAIEDLETDQLDEARIEFPVPLFCIGPFHRYVSASSSSLLAHDMTCLSWLDKQATNSVIYASLGSIASIDESEFLEIAWGLRNSNQPFLWVVRPGLIHGKEWIEILPKGFIENLEGRGKIVKWAPQPEVLAHRATGGFLTHCGWNSTLEGICEAIPMICRPSFGDQRVNARYINDVWKIGLHLENKVERLVIENAVRTLMTSSEGEEIRKRIMPMKETVEQCLKLGGSSFRNLENLIAYILSF
notes: full coding region including the 5' ATG codon cloned into pDEST15; N-terminal GST fusion; recombinant
Km (purified protein): 0.151 ± 0.028 mM | kcat (purified protein): 0.331 ± 0.016 s⁻¹ | kcat/Km (purified protein): 2200 M⁻¹ s⁻¹ | Km [1]: 0.461 ± 0.079 mM | kcat [1]: 0.582 ± 0.035 s⁻¹ | kcat/Km [1]: 1260 M⁻¹ s⁻¹ | Km [2]: 0.472 ± 0.097 mM | kcat [2]: 0.914 ± 0.067 s⁻¹ | kcat/Km [2]: 1940 M⁻¹ s⁻¹
